{
  "source": "patent US20110104248A1",
  "about": "“LIPOSOMES AND IMMUNOPOTENTIATING COMPOSITIONS CONTAINING THE SAME” (FOODCHEMIFA CO., LTD., priority 2007, published 2011)",
  "molecules": {"B1": {"name": "OVA: ovalbumin (OVA) (SIGMA), antigen (protein, UniProt P01012 2-386, looked up)", "Ovalbumin": "GSIGAASMEFCFDVFKELKVHHANENIFYCPIAIMSALAMVYLGAKDSTRTQINKVVRFDKLPGFGDSIEAQCGTSVNVHSSLRDILNQITKPNDVYSFSLASRLYAEERYPILPEYLQCVKELYRGGLEPINFQTAADQARELINSWVESQTNGIIRNVLQPSSVDSQTAMVLVNAIVFKGLWEKAFKDEDTQAMPFRVTEQESKPVQMMYQIGLFRVASMASEKMKILELPFASGTMSMLVLLPDEVSGLEQLESIINFEKLTEWTSSNVMEERKIKVYLPRMKMEEKYNLTSVLMAMGITDVFSSSANLSGISSAESLKISQAVHAAHAEINEAGREVVGSAEAGVDAASVSEEFRADHPFLFCIKHIATNAVLFFGRCVSP"}},
  "key": {"[1]": {"tested_on": "splenocytes stimulated with OVA", "assay": "Antigen-specific IFN-γ production from splenocytes of treated mice", "assay_type": "in vivo, mouse", "settings": "25 μg GSL-7 i.v.; spleen after 1 week; splenocytes stimulated with OVA 1 mg/ml, 96 hours", "protocol": "Liposome F (prepared in an amount so that 25 μg of GSL-7 was contained) prepared as in Example 14 was administered to C57BL/6 mice (8- to 10-week-old males) through the caudal vein. After 1 week, the spleen was excised. Splenocytes (5×10^5) were stimulated with OVA (1 mg/ml). After 96 hours, IFN-γ levels in the culture supernatants were measured. IFN-γ levels were measured by sandwich ELISA using purified anti-IFN-γ antibodies (R4-6A2) as capture antibodies and biotin-labeled anti-IFN-γ antibodies (AN-18) as detection antibodies. In the subsequent reaction, alkaline phosphatase-labeled streptavidin was caused to bind to biotin-labeled antibodies. The color was developed using p-nitrophenyl phosphate as a substrate. The absorbance at a wavelength of 405 nm was measured using a microplate reader (MICROPLATE READER Model 550). IFN-γ concentrations in test samples were calculated based on the standard curve of IFN-γ in the recombinant mice."}, "C57BL/6 mice": {"tested_on": "C57BL/6 mice", "assay": "Enhancing antibody production: serum anti-OVA IgG2a by ELISA", "assay_type": "in vivo, mouse", "settings": "25 μg GSL-7 and 25 μg OVA through the caudal vein, serum after 14 days, ELISA absorbance at 405 nm", "protocol": "Liposome F (in an amount so that 25 μg of GSL-7 and 25 μg of OVA were contained) was administered to C57BL/6 mice (8- to 10-week-old females) through the caudal vein. After 14 days, blood was collected and then serum anti-OVA antibody levels were measured by ELISA. An anti-OVA antibody titer (IgG2a) was assayed by adding the gradually diluted serum to a 96-well plate coated with OVA. Alkaline phosphatase (AP)-labeled anti-mouse IgG2a antibodies were used as detection antibodies. The color was developed using paranitrophenylphosphate (p-nitrophenyl phosphate) as a substrate. The reaction was terminated with 3N NaOH, the absorbance at 405 nm was measured using a microplate reader."}},
  "data": [
    {"molecule": "B1", "values": [
      {"measurement": "IFN-γ", "setting": "[1]", "value": "4.79 ± 0.45", "unit": "ng/mL"},
      {"measurement": "Anti-OVA IgG2a", "setting": "C57BL/6 mice", "value": "0.049 ± 0.018"}
    ]}
  ]
}
